# Experimental data as given in the supplement of paper PMC6757056.
# ± gives the standard deviation of the averaged measurements.
# B1: library; a variant is named by its letters at N, in order (parent)
# chain: GCUGUCACCGGUGCUUGGUACGUUAUAUUCAGCCGGUCUGAUGAGUCUNNNNNNAGACGAAACAGC
# Experiments:
# (6R,S)-folinic acid [1] = variants of: B1; assay: normalized RNA/DNA level without ligand (relative to sTRSVctl = 100) (log10 (% of sTRSVctl)); HEK293T overexpressing SLC46A1; higher = less ribozyme self-cleavage, higher mRNA level; details: without (6R,S)-folinic acid; ligand present: no
# Procedure, shortened: (§1)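 HEK293T cells were transfected with library plasmids carrying ribozyme switches linked to an mCherry reporter, or an eGFP reporter in some ligand experiments, at 4 µg per well of a 6-well plate, with any ligand added 1 h beforehand. After 72 h, total RNA was extracted with EDTA, reverse-transcribed, amplified, barcoded and sequenced. RNA level was defined as RNA reads over DNA reads, normalized to a spiked-in non-cleaving sequence or to the top-ranked sequences. That value was multiplied by 100 and converted to log10, the top set was 25 sequences, and only sequences with ≥100 DNA reads were retained.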
# (6R,S)-folinic acid [2] = variants of: B1; assay: normalized RNA/DNA level with ligand (relative to sTRSVctl = 100) (log10 (% of sTRSVctl)); HEK293T overexpressing SLC46A1; ligand concentration (+) RNA-Seq: 6 mM; higher = less ribozyme self-cleavage, higher mRNA level; details: with (6R,S)-folinic acid; ligand present: yes
# Procedure, shortened: as §1
Variant,"normalized RNA/DNA level without ligand (log10) ((6R,S)-folinic acid [1])","normalized RNA/DNA level with ligand (log10) ((6R,S)-folinic acid [2])"
UACUCG,1.8448 ± 0.00067,1.99 ± 0.031
UACUCU,2.027 ± 0.0077,2.05 ± 0.028
UACUCA,1.9962 ± 0.00016,1.98 ± 0.038
AACACA,1.99 ± 0.011,2.01 ± 0.037
AACACU,2 ± 0.032,2 ± 0.043
AACACC,2.046 ± 0.015,2.05 ± 0.086
GACAUG,1.925 ± 0.0021,1.994 ± 0.009
GACAUC,2.05 ± 0.034,2.04 ± 0.082
GACUGC,1.998 ± 0.0095,2.02 ± 0.037
GACUGG,2.023 ± 0.018,2.018 ± 0.018
GACUGA,2.03 ± 0.02,2 ± 0.025
GACUGU,1.98 ± 0.011,1.98 ± 0.068
GACUCA,2.004 ± 0.0082,1.98 ± 0.028
GACUCU,2.033 ± 0.0069,2 ± 0.066
GACUCG,2.0319 ± 0.0013,2.05 ± 0.032
AACAUU,2.03 ± 0.019,2.02 ± 0.022
GAGCAA,1.96 ± 0.025,2 ± 0.049
CACCUU,2.027 ± 0.0059,2.01 ± 0.025
CACCUC,2.02 ± 0.021,1.99 ± 0.027
CACCUG,2.04 ± 0.023,2.02 ± 0.022
CACCUA,2.024 ± 0.005,2.06 ± 0.038
UACACC,2.025 ± 0.011,1.99 ± 0.048
UACACU,2.017 ± 0.0061,2.03 ± 0.037
UAGAUA,1.961 ± 0.0041,2.01 ± 0.025

Variant,"normalized RNA/DNA level without ligand (log10) ((6R,S)-folinic acid [1])","normalized RNA/DNA level with ligand (log10) ((6R,S)-folinic acid [2])"
UAGAUU,1.98 ± 0.0065,2.01 ± 0.047
UAGAUC,2.0543 ± 0.0014,2.06 ± 0.055
GACCCA,2.018 ± 0.0089,2 ± 0.04
GACCCC,2.017 ± 0.0088,2 ± 0.045
GACCCG,2.031 ± 0.0022,2 ± 0.06
AAGCCC,2.0608 ± 0.0014,2.04 ± 0.039
AAGCCG,1.988 ± 0.0067,2.01 ± 0.041
AAGCCA,2.009 ± 0.0029,2.03 ± 0.022
AAGCGA,1.95 ± 0.02,2.02 ± 0.048
AAGCGU,1.956 ± 0.0071,2.02 ± 0.04
AAGCGG,1.941 ± 0.005,2 ± 0.054
AAGCGC,2.025 ± 0.0081,2.03 ± 0.05
CACGCU,2.042 ± 0.0097,2.034 ± 0.011
CACGCC,2.041 ± 0.011,1.99 ± 0.047
CACGCG,2 ± 0.023,1.997 ± 0.0065
CAGAAC,2.003 ± 0.0049,2.02 ± 0.056
CAGAAG,1.925 ± 0.006,2.02 ± 0.03
UACCAA,1.966 ± 0.0066,1.99 ± 0.02
UACCAG,1.862 ± 0.011,1.96 ± 0.025
UACCAU,1.9686 ± 0.001,2 ± 0.038
GAGCUU,2.051 ± 0.011,2.04 ± 0.064
GAGCUC,2.07 ± 0.011,2.05 ± 0.041
GAGCUG,2.087 ± 0.0096,2.07 ± 0.051
GACAGU,1.99 ± 0.025,2 ± 0.053

Variant,"normalized RNA/DNA level without ligand (log10) ((6R,S)-folinic acid [1])","normalized RNA/DNA level with ligand (log10) ((6R,S)-folinic acid [2])"
GACAGC,2.002 ± 0.0097,2.03 ± 0.046
UAGCUG,1.9 ± 0.021,2.026 ± 0.016
UAGCUA,1.9994 ± 0.0013,2.03 ± 0.048
UAGCUC,2.08 ± 0.017,2.0396 ± 0.002
AACAGC,2.0178 ± 0.00095,2.02 ± 0.022
AAGAAU,1.95 ± 0.0044,2.011 ± 0.014
UAGCCC,2.0516 ± 0.00055,2.03 ± 0.006
UAGCCA,2.034 ± 0.011,2.046 ± 0.019
AACGCG,1.909 ± 0.012,2.03 ± 0.026
UACAUU,2.005 ± 0.0053,1.99 ± 0.042
UACAUC,2.0657 ± 0.0019,2.04 ± 0.032
UACGAA,1.913 ± 0.0081,1.99 ± 0.03
AACCUC,2.1092 ± 0.0019,2.07 ± 0.052
AACCUG,1.972 ± 0.0045,2.02 ± 0.039
GACCAG,2.004 ± 0.013,2.022 ± 0.012
GACCAU,2.017 ± 0.0083,2.01 ± 0.027
GACCAC,2.001 ± 0.012,2.002 ± 0.0054
AACCCG,1.99 ± 0.0042,2.02 ± 0.044
AACCCA,2.033 ± 0.016,2.03 ± 0.022
AACCCU,2.047 ± 0.013,2.04 ± 0.036
CACCCA,2.011 ± 0.017,2.01 ± 0.059
CACCCU,2.059 ± 0.0058,2.04 ± 0.012
CACCCG,2.018 ± 0.0098,2.01 ± 0.031
CACCCC,2.031 ± 0.019,2.01 ± 0.022

Variant,"normalized RNA/DNA level without ligand (log10) ((6R,S)-folinic acid [1])","normalized RNA/DNA level with ligand (log10) ((6R,S)-folinic acid [2])"
CACACG,2.0281 ± 0.00028,2.04 ± 0.036
CACACC,2.061 ± 0.0083,2 ± 0.073
UACGGC,2.05 ± 0.0049,2.05 ± 0.063
CAGCCG,2.044 ± 0.0032,2.053 ± 0.019
CAGCCA,1.9832 ± 0.0011,2.01 ± 0.063
CAGCCC,2.077 ± 0.02,2.027 ± 0.013
GACGGC,2.03 ± 0.016,2.04 ± 0.072
AACUUC,2.063 ± 0.0082,2.039 ± 0.014
AACUUU,2.01 ± 0.022,2.01 ± 0.022
UACUGA,1.9244 ± 0.0015,2.03 ± 0.034
UACUGU,1.936 ± 0.0083,1.98 ± 0.02
GACUUC,2.08 ± 0.029,2.064 ± 0.014
GACUUA,1.982 ± 0.0071,1.99 ± 0.022
GACUUU,1.9897 ± 4.9e-05,1.97 ± 0.037
AAGCUU,2.01 ± 0.019,2.012 ± 0.0064
AAGCUG,2.01 ± 0.0066,2.048 ± 0.0075
AAGCUC,2.055 ± 0.019,2.054 ± 0.014
AAGCUA,1.991 ± 0.0072,2 ± 0.024
AACGGA,1.969 ± 0.019,2.02 ± 0.028
AACGGC,2.058 ± 0.0083,2.03 ± 0.027
AACGGU,1.96 ± 0.022,2 ± 0.021
AACGGG,1.892 ± 0.0076,2.01 ± 0.032
CAGCAA,1.963 ± 0.018,1.971 ± 0.013
CAGCAC,2.03 ± 0.022,1.98 ± 0.045

Variant,"normalized RNA/DNA level without ligand (log10) ((6R,S)-folinic acid [1])","normalized RNA/DNA level with ligand (log10) ((6R,S)-folinic acid [2])"
CAGCAG,1.962 ± 0.015,2.03 ± 0.052
GACGCA,2.005 ± 0.0025,2.01 ± 0.045
GACGCG,1.9961 ± 0.00035,2.032 ± 0.015
GACGCU,2.05 ± 0.0071,2.03 ± 0.021
GAGAAU,1.973 ± 0.0097,2.02 ± 0.051
AACUAG,1.94 ± 0.022,2.02 ± 0.039
AACUAU,1.975 ± 0.0066,2 ± 0.037
AACUAA,1.97 ± 0.023,1.96 ± 0.026
UACUUA,1.9834 ± 0.00066,2.01 ± 0.0084
UACUUC,2.0503 ± 0.00055,2.03 ± 0.042
UACUUU,2.001 ± 0.0048,2.03 ± 0.042
UAGCGA,1.921 ± 0.018,2.035 ± 0.019
UAGCGU,1.921 ± 0.0035,1.99 ± 0.048
UAGCGC,1.998 ± 0.018,2.005 ± 0.013
UACGUA,1.918 ± 0.0029,1.98 ± 0.037
UACGUC,2.07 ± 0.019,2.06 ± 0.066
UACGUU,1.971 ± 0.0048,1.997 ± 0.014
UACCCC,2.03 ± 0.024,2.022 ± 0.017
UACCCU,2.032 ± 0.0098,2 ± 0.041
UACCCA,2.0351 ± 0.0019,2.02 ± 0.034
